Blank lines part the entries; values can stand above or below the molecule they belong to.
Columns and labels:
METTL15^70–407 [1] = target: T1, METTL15^70–407 (Homo sapiens, UniProt A6NJ78); assay: isothermal titration calorimetry; format: binding
T1 construct: residues 70-407; N-terminal SUMO tag cleaved with ULP1; E. coli Rosetta (DE3)
T1 sequence (A6NJ78 70-407): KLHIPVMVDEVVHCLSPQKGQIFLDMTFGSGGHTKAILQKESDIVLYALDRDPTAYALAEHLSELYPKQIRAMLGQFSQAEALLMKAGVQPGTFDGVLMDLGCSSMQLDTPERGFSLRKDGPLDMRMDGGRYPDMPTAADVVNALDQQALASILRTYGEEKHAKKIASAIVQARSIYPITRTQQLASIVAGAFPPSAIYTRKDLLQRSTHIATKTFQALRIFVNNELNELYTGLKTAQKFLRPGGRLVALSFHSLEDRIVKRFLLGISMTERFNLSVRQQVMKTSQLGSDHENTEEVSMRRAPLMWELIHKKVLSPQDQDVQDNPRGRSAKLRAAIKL

METTL15^70–407 [2] = target: T2, METTL15^70–407 (Homo sapiens, UniProt A6NJ78, D119A); assay: isothermal titration calorimetry; format: binding
T2 construct: residues 70-407; N-terminal SUMO tag cleaved with ULP1; E. coli Rosetta (DE3)
T2 sequence (A6NJ78 70-407 D119A): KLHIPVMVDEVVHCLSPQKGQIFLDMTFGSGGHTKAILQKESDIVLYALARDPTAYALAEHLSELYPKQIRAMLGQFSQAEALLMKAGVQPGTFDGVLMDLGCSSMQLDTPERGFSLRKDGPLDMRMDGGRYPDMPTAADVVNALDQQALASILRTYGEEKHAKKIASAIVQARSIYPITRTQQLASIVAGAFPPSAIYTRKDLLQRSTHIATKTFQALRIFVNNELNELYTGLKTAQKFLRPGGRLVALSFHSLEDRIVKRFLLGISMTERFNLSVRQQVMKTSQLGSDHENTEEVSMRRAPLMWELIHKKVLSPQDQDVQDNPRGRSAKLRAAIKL

METTL15 WT = target: T3, METTL15 WT (Homo sapiens, UniProt A6NJ78 70-407); assay: fluorescence polarization; FP: dilution buffer B (50 mM Na2HPO4, 150 mM NaCl, pH 7.0), 20 C, 15 min incubation, 80 nM FAM-RNA stock mixed 1:1 (40 nM final); 1:1 binding model; conditions: protein: recombinant, tags: SUMO tag removed (ULP1), label: 5'-FAM
T3 sequence: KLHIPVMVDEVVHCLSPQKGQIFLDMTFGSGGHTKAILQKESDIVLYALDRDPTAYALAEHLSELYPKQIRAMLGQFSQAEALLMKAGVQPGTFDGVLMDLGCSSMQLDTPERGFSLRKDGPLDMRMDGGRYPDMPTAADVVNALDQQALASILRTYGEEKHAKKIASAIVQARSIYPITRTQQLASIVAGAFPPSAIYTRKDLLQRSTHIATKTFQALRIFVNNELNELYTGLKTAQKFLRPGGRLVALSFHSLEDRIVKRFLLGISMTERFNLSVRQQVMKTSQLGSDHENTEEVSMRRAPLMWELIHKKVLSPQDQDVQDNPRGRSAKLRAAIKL

[3] = target: T4, METTL15 WT;hsRBFA C-terminal helix (Homo sapiens;Homo sapiens, UniProt A6NJ78;Q8N0V3 70-407;226-260, |); assay: fluorescence polarization; +hsRBFA 226-260; FP: dilution buffer B (50 mM Na2HPO4, 150 mM NaCl, pH 7.0), 20 C, 15 min incubation, 80 nM FAM-RNA stock mixed 1:1 (40 nM final); 1:1 binding model; conditions: protein: recombinant;recombinant, tags: SUMO tag removed (ULP1);GST tag removed (TEV), copies: 1;1, label: 5'-FAM
T4 sequence 1: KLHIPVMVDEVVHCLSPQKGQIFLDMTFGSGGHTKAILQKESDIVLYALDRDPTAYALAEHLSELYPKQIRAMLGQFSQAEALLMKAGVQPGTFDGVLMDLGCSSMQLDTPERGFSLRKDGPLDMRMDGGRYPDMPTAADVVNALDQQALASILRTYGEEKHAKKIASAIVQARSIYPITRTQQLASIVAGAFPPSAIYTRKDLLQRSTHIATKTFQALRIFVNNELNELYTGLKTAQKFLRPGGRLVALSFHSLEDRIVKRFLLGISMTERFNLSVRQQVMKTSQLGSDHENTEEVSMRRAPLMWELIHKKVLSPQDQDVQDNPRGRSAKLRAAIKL
T4 sequence 2: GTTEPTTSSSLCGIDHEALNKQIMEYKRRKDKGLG

[4] = target: T5, METTL15 R327A/K330A/R331A (Homo sapiens, UniProt A6NJ78 70-407, R327A;K330A;R331A); assay: fluorescence polarization; FP: dilution buffer B (50 mM Na2HPO4, 150 mM NaCl, pH 7.0), 20 C, 15 min incubation, 80 nM FAM-RNA stock mixed 1:1 (40 nM final); 1:1 binding model; conditions: protein: recombinant; tags: SUMO tag removed (ULP1); label: 5'-FAM; hairpin
T5 sequence: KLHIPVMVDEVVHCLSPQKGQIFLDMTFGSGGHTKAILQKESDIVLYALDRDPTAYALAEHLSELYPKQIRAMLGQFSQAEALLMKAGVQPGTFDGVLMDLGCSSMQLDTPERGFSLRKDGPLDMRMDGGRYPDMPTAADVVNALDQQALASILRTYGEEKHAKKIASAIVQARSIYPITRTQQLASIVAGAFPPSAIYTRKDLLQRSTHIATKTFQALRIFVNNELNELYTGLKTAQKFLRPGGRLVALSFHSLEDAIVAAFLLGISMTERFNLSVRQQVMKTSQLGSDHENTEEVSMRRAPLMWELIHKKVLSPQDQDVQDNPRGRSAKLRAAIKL

[5] = target: T6, METTL15 F262A/P263A/K270A (Homo sapiens, UniProt A6NJ78 70-407, F262A;P263A;R270A); assay: as above; conditions: protein: recombinant; tags: SUMO tag removed (ULP1); label: 5'-FAM; hairpin
T6 sequence: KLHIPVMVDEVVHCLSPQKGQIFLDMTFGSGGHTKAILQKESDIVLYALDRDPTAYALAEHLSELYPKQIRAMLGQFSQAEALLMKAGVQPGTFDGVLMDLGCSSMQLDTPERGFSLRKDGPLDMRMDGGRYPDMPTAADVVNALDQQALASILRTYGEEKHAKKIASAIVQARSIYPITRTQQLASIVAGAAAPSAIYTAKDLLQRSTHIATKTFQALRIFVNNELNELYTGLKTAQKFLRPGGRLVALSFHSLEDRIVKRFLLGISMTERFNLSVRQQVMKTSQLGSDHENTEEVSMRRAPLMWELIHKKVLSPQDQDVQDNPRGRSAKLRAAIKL

[6] = target: T7, METTL15 H231A/K234A/F262A (Homo sapiens, UniProt A6NJ78 70-407, H231A;K234A;F262A); assay: as above; conditions: protein: recombinant; tags: SUMO tag removed (ULP1); label: 5'-FAM; hairpin
T7 sequence: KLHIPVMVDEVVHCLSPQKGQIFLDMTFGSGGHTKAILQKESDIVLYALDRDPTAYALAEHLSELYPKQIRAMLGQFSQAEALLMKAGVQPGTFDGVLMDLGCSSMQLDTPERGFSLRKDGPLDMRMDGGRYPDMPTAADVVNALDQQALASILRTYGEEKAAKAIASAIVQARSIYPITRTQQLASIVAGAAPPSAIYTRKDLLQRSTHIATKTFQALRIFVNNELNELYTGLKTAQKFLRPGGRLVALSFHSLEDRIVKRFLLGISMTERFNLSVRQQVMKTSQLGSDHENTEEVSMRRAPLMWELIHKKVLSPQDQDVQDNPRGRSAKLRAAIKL

METTL15 K380A/K381A = target: T8, METTL15 K380A/K381A (Homo sapiens, UniProt A6NJ78 70-407, K380A;K381A); assay: as above; conditions: protein: recombinant; tags: SUMO tag removed (ULP1); label: 5'-FAM; hairpin
T8 sequence: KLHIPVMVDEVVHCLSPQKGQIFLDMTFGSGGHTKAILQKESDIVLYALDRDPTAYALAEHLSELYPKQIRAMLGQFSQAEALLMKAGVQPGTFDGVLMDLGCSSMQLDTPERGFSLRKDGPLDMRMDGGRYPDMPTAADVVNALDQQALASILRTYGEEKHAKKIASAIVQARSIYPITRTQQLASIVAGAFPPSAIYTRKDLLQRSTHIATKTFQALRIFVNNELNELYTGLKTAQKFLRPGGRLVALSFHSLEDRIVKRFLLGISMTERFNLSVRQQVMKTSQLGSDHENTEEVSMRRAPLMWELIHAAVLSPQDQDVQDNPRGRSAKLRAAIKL

[7] = target: METTL15^70–407 (human METTL15, residues 70–407), wild type (human, UniProt A6NJ78 70-407); assay: ITC; Microcal PEAQ-ITC, 20 °C, buffer B (50 mM Na2HPO4, 150 mM NaCl, pH 7.0); hsRBFA 600 μM and METTL15 40 μM; single binding site model; conditions: both partners purified
METTL15^70–407 N212A = METTL15^70–407 N212A (human, UniProt A6NJ78 70-407, N212A); assay: as above; conditions: both partners purified
METTL15^70–407 D209A = METTL15^70–407 D209A (human, UniProt A6NJ78 70-407, D209A); assay: as above; conditions: both partners purified

Kd (METTL15^70–407 [1]): 2990 ± 360 nM | Kd (METTL15^70–407 [2]): 17300 ± 310 nM
Molecule: C[S+](CC[C@H](N)C(=O)O)C[C@H]1O[C@@H](n2cnc3c(N)ncnc32)[C@H](O)[C@@H]1O (some centres unmarked) [SAM]

Molecule: AAAAAAAAAAAAA (ssRNA) [5'-FAM-polyA13]
Kd (METTL15 WT): 610 ± 110 nM

Molecule: CGACACCGCCCGUAACGGUGUCG (structured_RNA) [5'-FAM-h44_dsRNA4]
Kd (METTL15 WT; hairpin): 2330 ± 130 nM

Molecule: CGACCGCCCGUAACGGUCG (structured_RNA) [5'-FAM-h44_dsRNA1]
Kd ([3]; hairpin): 1150 ± 80 nM | Kd [4]: 1030 ± 150 nM | binding result [5]: no binding | Kd (METTL15 WT; hairpin): 1100 ± 90 nM | binding result [6]: no binding | Kd (METTL15 K380A/K381A): 2680 ± 290 nM

Molecule: CGACCGGAAGCGGUCG (structured_RNA) [5'-FAM-h44_dsRNA2]
Kd (METTL15 WT; hairpin): 770 ± 50 nM

Kd [7]: 410 nM | dH [7]: -11.5 ± 0.2 kcal/mol
Molecule: GTTEPTTSSSLCGIDHEALNKAIMEYKRRKDKGLG (domain or fragment, human, UniProt Q8N0V3 226-260, looked up) [hsRBFA^226–260 Q247A]

Kd [7]: 610 nM | dH [7]: -10.6 ± 0.2 kcal/mol
Molecule: GTTEPTTSSSLCGIDHEALAKQIMEYKRRKDKGLG (domain or fragment, human, UniProt Q8N0V3 226-260, looked up) [hsRBFA^226–260 N245A]

Kd [7]: 19600 nM | dH [7]: -17.2 ± 3.1 kcal/mol
Molecule: GTTEPTTSSSLCGIDHEALNKQIMEYARRKDKGLG (domain or fragment, human, UniProt Q8N0V3 226-260, looked up) [hsRBFA^226–260 K252A]

Kd (METTL15^70–407 N212A): 1120 nM | dH (METTL15^70–407 N212A): -9.5 ± 0.34 kcal/mol | Kd (METTL15^70–407 D209A): 7940 nM | dH (METTL15^70–407 D209A): -7.43 ± 0.32 kcal/mol
Molecule: GTTEPTTSSSLCGIDHEALNKQIMEYKRRKDKGLG (domain or fragment, UniProt Q8N0V3 226-260, looked up) [hsRBFA^226–260 (human hsRBFA, residues 226–260), wild type]

Molecule: CACACCGCCCGUCAC (ssRNA) [5'-FAM-h44_ssRNA3]
Kd [3]: 1760 ± 160 nM | Kd (METTL15 WT): 2200 ± 330 nM

— article PMC10828496 (Cell Discovery, 2024)
